Assay results from publication PMC3458577 (Nucleic Acids Research, 2012).

B1: Recombinant human Polλ protein (enzyme, UniProt Q9UGP5 1-575, looked up)
chain: MDPRGILKAFPKRQKIHADASSKVLAKIPRREEGEEAEEWLSSLRAHVVRTGIGRARAELFEKQIVQHGGQLCPAQGPGVTHIVVDEGMDYERALRLLRLPQLPPGAQLVKSAWLSLCLQERRLVDVAGFSIFIPSRYLDHPQPSKAEQDASIPPGTHEALLQTALSPPPPPTRPVSPPQKAKEAPNTQAQPISDDEASDGEETQVSAADLEALISGHYPTSLEGDCEPSPAPAVLDKWVCAQPSSQKATNHNLHITEKLEVLAKAYSVQGDKWRALGYAKAINALKSFHKPVTSYQEACSIPGIGKRMAEKIIEILESGHLRKLDHISESVPVLELFSNIWGAGTKTAQMWYQQGFRSLEDIRSQASLTTQQAIGLKHYSDFLERMPREEATEIEQTVQKAAQAFNSGLLCVACGSYRRGKATCGDVDVLITHPDGRSHRGIFSRLLDSLRQEGFLTDDLVSQEENGQQQKYLGVCRLPGPGRRHRRLDIIVVPYSEFACALLYFTGSAHFNRSMRALAKTKGMSLSEHALSTAVVRNTHGCKVGPGRVLPTPTEKDVFRLLGLPYREPAERDW
B2: (His)6-tagged Polλ244–575 (domain or fragment, human, UniProt Q9UGP5 244-575, looked up)
chain: PSSQKATNHNLHITEKLEVLAKAYSVQGDKWRALGYAKAINALKSFHKPVTSYQEACSIPGIGKRMAEKIIEILESGHLRKLDHISESVPVLELFSNIWGAGTKTAQMWYQQGFRSLEDIRSQASLTTQQAIGLKHYSDFLERMPREEATEIEQTVQKAAQAFNSGLLCVACGSYRRGKATCGDVDVLITHPDGRSHRGIFSRLLDSLRQEGFLTDDLVSQEENGQQQKYLGVCRLPGPGRRHRRLDIIVVPYSEFACALLYFTGSAHFNRSMRALAKTKGMSLSEHALSTAVVRNTHGCKVGPGRVLPTPTEKDVFRLLGLPYREPAERDW

Target: Recombinant human WRN protein (wild type) (human, UniProt Q14191 1-1432)
Sequence (Q14191 whole entry): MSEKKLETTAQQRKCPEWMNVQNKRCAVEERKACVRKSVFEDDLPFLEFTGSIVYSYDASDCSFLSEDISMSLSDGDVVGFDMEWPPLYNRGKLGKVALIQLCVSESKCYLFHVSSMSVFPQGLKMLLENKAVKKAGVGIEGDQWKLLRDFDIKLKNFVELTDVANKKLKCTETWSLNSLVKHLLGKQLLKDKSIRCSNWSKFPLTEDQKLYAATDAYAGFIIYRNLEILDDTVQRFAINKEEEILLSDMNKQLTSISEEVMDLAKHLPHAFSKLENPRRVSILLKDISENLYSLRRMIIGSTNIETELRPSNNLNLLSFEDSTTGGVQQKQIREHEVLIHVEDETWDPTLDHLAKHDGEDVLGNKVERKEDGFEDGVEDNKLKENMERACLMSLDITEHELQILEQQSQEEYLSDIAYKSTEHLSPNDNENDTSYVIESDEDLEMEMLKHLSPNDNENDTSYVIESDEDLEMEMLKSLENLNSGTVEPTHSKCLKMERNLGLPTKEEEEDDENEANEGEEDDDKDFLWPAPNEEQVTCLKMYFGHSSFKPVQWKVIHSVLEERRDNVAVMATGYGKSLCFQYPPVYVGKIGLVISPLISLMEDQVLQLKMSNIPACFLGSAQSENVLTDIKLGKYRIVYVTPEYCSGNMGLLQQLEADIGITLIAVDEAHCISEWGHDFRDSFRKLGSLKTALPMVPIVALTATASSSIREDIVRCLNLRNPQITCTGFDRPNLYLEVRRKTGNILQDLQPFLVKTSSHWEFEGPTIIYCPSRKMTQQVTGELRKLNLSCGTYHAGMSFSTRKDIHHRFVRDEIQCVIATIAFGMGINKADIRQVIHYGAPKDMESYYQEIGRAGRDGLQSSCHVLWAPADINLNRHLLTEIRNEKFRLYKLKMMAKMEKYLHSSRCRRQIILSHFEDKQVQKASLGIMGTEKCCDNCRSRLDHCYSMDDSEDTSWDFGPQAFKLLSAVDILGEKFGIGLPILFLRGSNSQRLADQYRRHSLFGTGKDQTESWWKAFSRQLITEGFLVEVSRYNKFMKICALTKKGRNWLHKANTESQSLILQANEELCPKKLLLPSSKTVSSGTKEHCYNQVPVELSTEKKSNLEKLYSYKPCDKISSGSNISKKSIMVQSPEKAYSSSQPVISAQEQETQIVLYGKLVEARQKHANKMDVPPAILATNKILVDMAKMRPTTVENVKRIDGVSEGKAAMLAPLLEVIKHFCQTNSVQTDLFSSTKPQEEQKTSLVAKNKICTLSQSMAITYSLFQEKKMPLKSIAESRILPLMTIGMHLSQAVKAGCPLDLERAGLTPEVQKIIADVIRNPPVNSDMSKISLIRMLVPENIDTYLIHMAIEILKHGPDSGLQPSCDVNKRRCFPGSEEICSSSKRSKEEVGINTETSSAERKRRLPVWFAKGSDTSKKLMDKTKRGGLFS
Assay: co-IP

Binder	binding result
B1	binds
B2	binds
